The test has as its target cytochrome c (human (endogenous in SK-N-BE), UniProt P99999 1-105). Put plainly: co-IP.

Sequence of cytochrome c (P99999 whole entry): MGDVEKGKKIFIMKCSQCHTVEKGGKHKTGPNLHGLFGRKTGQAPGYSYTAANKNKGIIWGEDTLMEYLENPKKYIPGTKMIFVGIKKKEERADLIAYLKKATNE

B1: Neuroglobin (natural protein, human (endogenous in SK-N-BE), UniProt Q9NPG2 1-151, looked up)
chain: MERPEPELIRQSWRAVSRSPLEHGTVLFARLFALEPDLLPLFQYNCRQFSSPEDCLSSPEFLDHIRKVMLVIDAAVTNVEDLSSLEEYLASLGRKHRAVGVKLSSFSTVGESLLYMLEKCLGPAFTPATRAAWSQLYGAVVQAMSRGWDGE
As to B1, the “fold NGB–cytochrome c association in mitochondria after E2” value is approximately 3.3 fold.

The values above are taken from article PMC3734830 (Cell Death & Disease, 2013).
